Measured values taken from publication PMC9482650, “Quantitative fragmentomics allow affinity mapping of interactomes” (Nature Communications, 2022).

What was measured:
Experiment in all cases: holdup assay
Parameters in all cases: key: below the threshold = too weak to quantify, mostly under pKd 3.1 to 4
Settings in all cases: plain residues with an end cap or a label only (N-terminal biotin on a linker: ado-ado)
APBA2_1, Q99767 = target: T1, APBA2_1, Q99767
T1 sequence (Q99767 563-664, limits assumed, looked up): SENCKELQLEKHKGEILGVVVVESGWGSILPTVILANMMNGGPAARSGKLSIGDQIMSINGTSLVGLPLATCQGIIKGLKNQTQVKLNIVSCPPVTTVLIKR

ARHGEF11, O15085 = target: T2, ARHGEF11, O15085
T2 sequence (O15085 42-136, limits assumed, looked up): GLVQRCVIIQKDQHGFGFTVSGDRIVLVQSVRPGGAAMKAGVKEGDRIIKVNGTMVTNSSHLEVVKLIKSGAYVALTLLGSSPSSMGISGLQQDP

ARHGEF12, Q9NZN5-2 = target: ARHGEF12, Q9NZN5-2
Chain of ARHGEF12, Q9NZN5-2 (Q9NZN5 other isoform, or with tags, fused parts or gaps): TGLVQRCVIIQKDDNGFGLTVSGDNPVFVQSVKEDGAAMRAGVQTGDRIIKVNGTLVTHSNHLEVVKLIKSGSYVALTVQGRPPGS

CASK, O14936 = target: CASK, O14936
Chain of CASK, O14936 (O14936 487-570): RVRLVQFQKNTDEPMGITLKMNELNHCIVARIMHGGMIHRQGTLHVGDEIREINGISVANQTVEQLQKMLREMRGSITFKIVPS

DLG1_2, Q12959 = target: DLG1_2, Q12959
Chain of DLG1_2, Q12959 (Q12959 314-412): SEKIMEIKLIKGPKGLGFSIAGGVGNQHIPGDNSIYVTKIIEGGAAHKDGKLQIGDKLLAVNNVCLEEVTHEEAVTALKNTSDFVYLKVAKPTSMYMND

DLG1_3, Q12959 = target: DLG1_3, Q12959
Chain of DLG1_3, Q12959 (Q12959 457-571): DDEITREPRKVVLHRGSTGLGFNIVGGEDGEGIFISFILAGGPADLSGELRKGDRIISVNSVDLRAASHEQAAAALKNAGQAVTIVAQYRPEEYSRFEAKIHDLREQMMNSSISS

DLG2_2, Q15700 = target: DLG2_2, Q15700
Chain of DLG2_2, Q15700 (Q15700 189-283): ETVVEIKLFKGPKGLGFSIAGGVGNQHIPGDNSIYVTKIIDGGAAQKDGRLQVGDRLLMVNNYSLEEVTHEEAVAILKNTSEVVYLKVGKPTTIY

DLG3_1, Q92796 = target: T3, DLG3_1, Q92796
T3 sequence (Q92796 125-227, limits assumed, looked up): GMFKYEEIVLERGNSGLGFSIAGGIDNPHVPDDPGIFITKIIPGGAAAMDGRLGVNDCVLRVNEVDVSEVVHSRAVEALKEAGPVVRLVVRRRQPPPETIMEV

DLG3_3, Q92796 = target: T4, DLG3_3, Q92796
T4 sequence (Q92796 374-475, limits assumed, looked up): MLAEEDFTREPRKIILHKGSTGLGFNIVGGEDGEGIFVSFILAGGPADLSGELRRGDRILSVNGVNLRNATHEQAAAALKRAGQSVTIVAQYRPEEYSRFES

DLG4_1, P78352 = target: DLG4_1, P78352
Chain of DLG4_1, P78352 (P78352 62-152): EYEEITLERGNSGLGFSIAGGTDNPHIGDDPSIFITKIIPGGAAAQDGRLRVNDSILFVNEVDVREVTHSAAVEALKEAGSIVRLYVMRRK

DLG4_2, P78352 = target: DLG4_2, P78352
Chain of DLG4_2, P78352 (P78352 155-259): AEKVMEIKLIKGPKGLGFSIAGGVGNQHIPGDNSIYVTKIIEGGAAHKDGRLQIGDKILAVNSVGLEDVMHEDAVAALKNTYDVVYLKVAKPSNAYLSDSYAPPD

FRMPD2_1, Q68DX3 = target: FRMPD2_1, Q68DX3
Chain of FRMPD2_1, Q68DX3 (Q68DX3 770-861): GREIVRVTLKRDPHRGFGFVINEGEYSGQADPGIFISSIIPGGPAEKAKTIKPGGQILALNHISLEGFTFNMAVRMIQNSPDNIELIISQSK

GRIP2_5, Q9C0E4 = target: GRIP2_5, Q9C0E4
Chain of GRIP2_5, Q9C0E4 (Q9C0E4 544-642): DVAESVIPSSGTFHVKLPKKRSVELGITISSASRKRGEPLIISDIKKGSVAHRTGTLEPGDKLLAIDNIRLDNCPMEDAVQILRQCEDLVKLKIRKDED

GRIP2_6, Q9C0E4 = target: GRIP2_6, Q9C0E4
Chain of GRIP2_6, Q9C0E4 (Q9C0E4 648-740): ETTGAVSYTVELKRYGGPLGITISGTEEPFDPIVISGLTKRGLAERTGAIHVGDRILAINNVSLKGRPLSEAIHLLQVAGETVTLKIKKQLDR

HTRA2, O43464 = target: HTRA2, O43464
Chain of HTRA2, O43464 (O43464 355-458): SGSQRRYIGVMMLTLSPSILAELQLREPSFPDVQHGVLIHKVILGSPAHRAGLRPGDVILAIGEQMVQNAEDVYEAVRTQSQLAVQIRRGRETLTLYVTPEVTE

IL16_4, Q14005 = target: IL16_4, Q14005
Chain of IL16_4, Q14005 (Q14005 1229-1329): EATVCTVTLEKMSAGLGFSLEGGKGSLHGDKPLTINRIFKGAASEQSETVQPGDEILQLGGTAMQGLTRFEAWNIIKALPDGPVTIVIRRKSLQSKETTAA

Inadl_4, Q8NI35 = target: Inadl_4, Q8NI35
Chain of Inadl_4, Q8NI35 (Q8NI35 547-651): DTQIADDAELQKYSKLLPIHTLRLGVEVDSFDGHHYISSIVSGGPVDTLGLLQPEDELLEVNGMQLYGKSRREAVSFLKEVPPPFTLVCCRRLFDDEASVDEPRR

Inadl_8, Q8NI35 = target: Inadl_8, Q8NI35
Chain of Inadl_8, Q8NI35 (Q8NI35 1425-1530): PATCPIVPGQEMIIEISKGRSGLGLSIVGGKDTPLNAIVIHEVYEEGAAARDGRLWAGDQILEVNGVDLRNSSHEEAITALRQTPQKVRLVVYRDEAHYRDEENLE

Inadl_9, Q8NI35 = target: Inadl_9, Q8NI35
Chain of Inadl_9, Q8NI35 (Q8NI35 1530-1615): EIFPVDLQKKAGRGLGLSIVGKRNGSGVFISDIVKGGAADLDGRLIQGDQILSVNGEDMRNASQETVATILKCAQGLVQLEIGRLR

MAGI2_2, Q86UL8 = target: MAGI2_2, Q86UL8
Chain of MAGI2_2, Q86UL8 (Q86UL8 410-522): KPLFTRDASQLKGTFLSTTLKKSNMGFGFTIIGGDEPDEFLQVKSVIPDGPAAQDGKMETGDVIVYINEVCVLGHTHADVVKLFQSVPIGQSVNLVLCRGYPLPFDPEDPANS

MAGI2_4, Q86UL8 = target: MAGI2_4, Q86UL8
Chain of MAGI2_4, Q86UL8 (Q86UL8 772-865): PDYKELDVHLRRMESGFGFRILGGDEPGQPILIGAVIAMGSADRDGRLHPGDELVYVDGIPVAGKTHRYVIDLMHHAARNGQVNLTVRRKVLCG

MAGI3_2, Q5TCQ9 = target: MAGI3_2, Q5TCQ9
Chain of MAGI3_2, Q5TCQ9 (Q5TCQ9 398-503): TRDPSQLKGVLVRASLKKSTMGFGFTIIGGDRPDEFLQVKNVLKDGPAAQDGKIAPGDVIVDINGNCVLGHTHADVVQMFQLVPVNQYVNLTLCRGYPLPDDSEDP

MAST2, Q6P0Q8 = target: MAST2, Q6P0Q8
Chain of MAST2, Q6P0Q8 (Q6P0Q8 1099-1202): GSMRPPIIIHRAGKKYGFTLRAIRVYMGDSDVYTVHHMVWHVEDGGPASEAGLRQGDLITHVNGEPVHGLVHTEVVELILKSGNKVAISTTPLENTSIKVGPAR

MPDZ_10, O75970 = target: T5, MPDZ_10, O75970
T5 sequence (O75970 1624-1722, limits assumed, looked up): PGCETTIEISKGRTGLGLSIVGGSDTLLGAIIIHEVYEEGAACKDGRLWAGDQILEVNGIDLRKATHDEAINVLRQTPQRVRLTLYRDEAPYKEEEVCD

NHERF3_3, Q5T2W1 = target: T6, NHERF3_3, Q5T2W1
T6 sequence (Q5T2W1 238-333, limits assumed, looked up): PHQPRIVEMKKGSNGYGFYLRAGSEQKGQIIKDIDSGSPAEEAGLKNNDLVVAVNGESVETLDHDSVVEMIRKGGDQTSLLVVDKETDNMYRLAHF

NHERF4_1, Q86UT5-2 = target: NHERF4_1, Q86UT5-2
Chain of NHERF4_1, Q86UT5-2 (Q86UT5 other isoform, or with tags, fused parts or gaps): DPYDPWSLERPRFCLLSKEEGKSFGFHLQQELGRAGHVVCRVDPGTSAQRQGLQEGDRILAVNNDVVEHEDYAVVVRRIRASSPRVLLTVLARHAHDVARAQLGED

NHERF4_4, Q86UT5 = target: NHERF4_4, Q86UT5
Chain of NHERF4_4, Q86UT5 (Q86UT5 464-550): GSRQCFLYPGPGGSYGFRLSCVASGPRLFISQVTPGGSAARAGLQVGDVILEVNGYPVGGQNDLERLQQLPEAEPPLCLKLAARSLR

PDZRN4_1, Q6ZMN7 = target: PDZRN4_1, Q6ZMN7
Chain of PDZRN4_1, Q6ZMN7 (Q6ZMN7 213-318): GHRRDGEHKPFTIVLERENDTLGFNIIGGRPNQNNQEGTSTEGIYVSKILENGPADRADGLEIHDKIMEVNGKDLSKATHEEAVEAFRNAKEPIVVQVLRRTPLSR

PTPN3, P26045 = target: PTPN3, P26045
Chain of PTPN3, P26045 (P26045 505-587): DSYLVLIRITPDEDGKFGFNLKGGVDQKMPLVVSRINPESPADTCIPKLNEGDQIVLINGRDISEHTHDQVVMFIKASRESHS

SHANK1, Q9Y566 = target: T7, SHANK1, Q9Y566
T7 sequence (Q9Y566 658-767, limits assumed, looked up): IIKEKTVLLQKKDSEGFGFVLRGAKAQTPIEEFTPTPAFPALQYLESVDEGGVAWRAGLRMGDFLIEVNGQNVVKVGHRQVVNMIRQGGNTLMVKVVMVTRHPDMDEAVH

SNTA1, Q13424 = target: T8, SNTA1, Q13424
T8 sequence (Q13424 82-180, limits assumed, looked up): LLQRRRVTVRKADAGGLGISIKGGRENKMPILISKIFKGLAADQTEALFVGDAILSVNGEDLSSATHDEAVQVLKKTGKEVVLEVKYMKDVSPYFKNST

SNTG1, Q9NSN8 = target: T9, SNTG1, Q9NSN8
T9 sequence (Q9NSN8 52-150, limits assumed, looked up): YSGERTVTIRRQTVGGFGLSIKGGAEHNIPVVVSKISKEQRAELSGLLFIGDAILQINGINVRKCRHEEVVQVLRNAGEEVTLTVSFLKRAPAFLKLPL

SNX27, Q96L92 = target: SNX27, Q96L92
TIAM2, Q8IVF5 = target: T10, TIAM2, Q8IVF5
T10 sequence (Q8IVF5 885-986, limits assumed, looked up): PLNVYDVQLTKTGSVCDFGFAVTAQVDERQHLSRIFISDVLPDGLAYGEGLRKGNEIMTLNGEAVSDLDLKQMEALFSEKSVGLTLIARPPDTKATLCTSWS

TJP1_2, Q07157 = target: TJP1_2, Q07157
Chain of TJP1_2, Q07157 (Q07157 181-274): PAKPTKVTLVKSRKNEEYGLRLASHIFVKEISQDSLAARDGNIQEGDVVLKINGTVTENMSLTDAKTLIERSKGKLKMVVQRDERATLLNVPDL

TJP1_3, Q07157 = target: TJP1_3, Q07157
Chain of TJP1_3, Q07157 (Q07157 416-512): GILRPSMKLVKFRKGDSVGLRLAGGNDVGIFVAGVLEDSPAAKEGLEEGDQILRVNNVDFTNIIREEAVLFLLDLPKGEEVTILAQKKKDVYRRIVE

TX1BP3, O14907 = target: T11, TX1BP3, O14907
T11 sequence (O14907 10-122, limits assumed, looked up): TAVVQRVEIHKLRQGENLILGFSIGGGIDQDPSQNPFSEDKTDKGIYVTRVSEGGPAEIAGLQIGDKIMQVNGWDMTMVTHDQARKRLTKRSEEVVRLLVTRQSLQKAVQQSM

Q: What does the source list for KSGKQTMLVV [TRIM29, Q14134]?
A: pKd (APBA2_1, Q99767): 3.5; pKd (ARHGEF11, O15085): 3.89; pKd (ARHGEF12, Q9NZN5-2): 3.68; pKd (CASK, O14936): 3.48; pKd (DLG1_2, Q12959): 3.67; pKd (DLG1_3, Q12959): 3.69; pKd (DLG2_2, Q15700): 3.48; pKd (DLG3_1, Q92796): 3.63; pKd (DLG3_3, Q92796): 3.81; pKd (DLG4_1, P78352): 3.56; pKd (DLG4_2, P78352): 3.79; pKd (FRMPD2_1, Q68DX3): 3.47; pKd (GRIP2_5, Q9C0E4): 3.59; pKd (GRIP2_6, Q9C0E4): 3.55; pKd (HTRA2, O43464): 3.68; pKd (IL16_4, Q14005): 3.65; pKd (Inadl_4, Q8NI35): 3.49; pKd (Inadl_8, Q8NI35): 3.69; pKd (Inadl_9, Q8NI35): 3.49; pKd (MAGI2_2, Q86UL8): 3.51; pKd (MAGI2_4, Q86UL8): 3.55; pKd (MAGI3_2, Q5TCQ9): 3.5; pKd (MAST2, Q6P0Q8): 3.62; pKd (MPDZ_10, O75970): 3.48; pKd (NHERF3_3, Q5T2W1): 3.75; pKd (NHERF4_1, Q86UT5-2): 3.6; pKd (NHERF4_4, Q86UT5): 3.8; pKd (PDZRN4_1, Q6ZMN7): 3.68; pKd (PTPN3, P26045): 3.71; pKd (SHANK1, Q9Y566): 3.52; pKd (SNTA1, Q13424): 3.49; pKd (SNTG1, Q9NSN8): 3.5; pKd (SNX27, Q96L92): 3.8; pKd (TIAM2, Q8IVF5): 3.64; pKd (TJP1_2, Q07157): 3.88; pKd (TJP1_3, Q07157): 3.61; pKd (TX1BP3, O14907): 3.88
